Source: publication PMC5716189 (Nucleic Acids Research, 2017)
Square brackets hold non-standard residues; d marks the D form. Ends that are not written are not given here. * marks the point of attachment. FITC = O=C1OC2(c3ccc(O)cc3Oc3cc(O)ccc32)c2ccc(NC(=S)*)cc21; pT = C[C@@H](OP(=O)(O)O)[C@H](N)C(=O)O; pS = N[C@@H](COP(=O)(O)O)C(=O)O

Tests used:
Details in all cases: both partners purified
[1] = biological target: T1, APLF FHA domain (forkhead-associated domain of aprataxin and PNKP-like factor) (human, UniProt Q8IW19 1-105); experiment: fluorescence polarisation; pH 7.4; apparent dissociation constants; FITC-Gly-Gly-labelled peptide with APLF FHA; 25 mM HEPES, 25 mM MES, 150 mM NaCl, 1 mM EDTA, 2 mM DTT, 0.05% Tween 20; room temperature; single-site fit
T1 sequence: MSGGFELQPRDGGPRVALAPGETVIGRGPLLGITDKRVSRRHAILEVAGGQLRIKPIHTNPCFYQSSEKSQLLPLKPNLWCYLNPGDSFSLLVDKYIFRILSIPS

[2] = biological target: T1, APLF FHA domain (forkhead-associated …); experiment: NMR titration; 2D 1H,15N-HSQC of 0.1 mM U-[15N] APLF-FHA as a function of phosphopeptide concentration (0–800 μM); 25 mM HEPES, 25 mM MES, 150 mM NaCl, 1 mM EDTA, pH 7.4; 35°C; lineshape simulation (two-site exchange) for Kd and τB of the 18-residue peptide
[3] = biological target: T1, APLF FHA domain (forkhead-associated …); experiment: fluorescence polarisation; pH 6.5; apparent dissociation constants; FITC-Gly-Gly-labelled peptide with APLF FHA; 25 mM HEPES, 25 mM MES, 150 mM NaCl, 1 mM EDTA, 2 mM DTT, 0.05% Tween 20; room temperature; single-site fit
[4] = biological target: T1, APLF FHA domain (forkhead-associated …); experiment: fluorescence polarisation; pH 7.0; apparent dissociation constants; FITC-Gly-Gly-labelled peptide with APLF FHA; 25 mM HEPES, 25 mM MES, 150 mM NaCl, 1 mM EDTA, 2 mM DTT, 0.05% Tween 20; room temperature; single-site fit
[5] = biological target: T1, APLF FHA domain (forkhead-associated …); experiment: fluorescence polarisation; pH 6.0; apparent dissociation constants; FITC-Gly-Gly-labelled peptide with APLF FHA; 25 mM HEPES, 25 mM MES, 150 mM NaCl, 1 mM EDTA, 2 mM DTT, 0.05% Tween 20; room temperature; single-site fit
[6] = biological target: T1, APLF FHA domain (forkhead-associated …); experiment: fluorescence polarisation; pH 5.5; apparent dissociation constants; FITC-Gly-Gly-labelled peptide with APLF FHA; 25 mM HEPES, 25 mM MES, 150 mM NaCl, 1 mM EDTA, 2 mM DTT, 0.05% Tween 20; room temperature; single-site fit
[7] = biological target: T1, APLF FHA domain (forkhead-associated …); experiment: NMR titration; 2D 1H,15N-HSQC of 0.1 mM U-[15N] APLF-FHA as a function of phosphopeptide concentration (0–800 μM); 25 mM HEPES, 25 mM MES, 150 mM NaCl, 1 mM EDTA, pH 7.4; 35°C; lineshape simulation (two-site exchange) for Kd and τB of the 18-residue peptide; remark: listed apart in the source
[8] = biological target: T1, APLF FHA domain (forkhead-associated …); experiment: crystal structure; sitting drop vapor diffusion, 20°C; APLF FHA 9–10 mg/ml with peptide at a 1:1 peptide:protein ratio

B1: FITC-Gly-Gly-XRCC1_(pSpTEE-18) diphosphopeptide (peptide)
peptide: {FITC}-GGDPYAG[pS][pT]DENEDEEEHQE
[1]
  Kd: 300 ± 70 nM

B2: XRCC1_(pSpT-18) diphosphopeptide, unlabelled (NMR studies) (peptide)
peptide: DPYAG[pS][pT]DENTDSEEHQE
[2]
  Kd: 4 µM

B3: FITC-Gly-Gly-XRCC1_(pSpT-24) diphosphopeptide (peptide)
peptide: {FITC}-GGQEENGEDPYAG[pS][pT]DENTDSEEHQE
[3]
  Kd: 320 ± 90 nM
[4]
  Kd: 200 ± 30 nM
[5]
  Kd: 3.65 ± 0.91 µM
[1]
  Kd: 160 ± 20 nM
[6]
  Kd: 6.65 ± 2.35 µM

B4: XRCC1_(pSpT-9) diphosphopeptide (peptide)
peptide: PYAG[pS][pT]DEN
[7]
  Kd: 80 µM

B5: XRCC1_(EpT-9) monophosphopeptide (peptide)
peptide: PYAGE[pT]DEN
[8]
  binding result: binds
